According to patent publication US20050147614A1 (CANCER RESEARCH TECHNOLOGY, published 2005):

Tests used:
[1] = target: T1, carcinoembryonic antigen (CEA) (UniProt P06731 35-685, limits assumed, biotinylated (labelled form); unlabelled CEA (Calbiochem) used as competitor in the off-rate assays); assay: yeast surface display, equilibrium titration with biotinylated CEA, flow cytometry
T1 construct: also called biotinylated-CEA; bio-CEA
T1 sequence (looked up): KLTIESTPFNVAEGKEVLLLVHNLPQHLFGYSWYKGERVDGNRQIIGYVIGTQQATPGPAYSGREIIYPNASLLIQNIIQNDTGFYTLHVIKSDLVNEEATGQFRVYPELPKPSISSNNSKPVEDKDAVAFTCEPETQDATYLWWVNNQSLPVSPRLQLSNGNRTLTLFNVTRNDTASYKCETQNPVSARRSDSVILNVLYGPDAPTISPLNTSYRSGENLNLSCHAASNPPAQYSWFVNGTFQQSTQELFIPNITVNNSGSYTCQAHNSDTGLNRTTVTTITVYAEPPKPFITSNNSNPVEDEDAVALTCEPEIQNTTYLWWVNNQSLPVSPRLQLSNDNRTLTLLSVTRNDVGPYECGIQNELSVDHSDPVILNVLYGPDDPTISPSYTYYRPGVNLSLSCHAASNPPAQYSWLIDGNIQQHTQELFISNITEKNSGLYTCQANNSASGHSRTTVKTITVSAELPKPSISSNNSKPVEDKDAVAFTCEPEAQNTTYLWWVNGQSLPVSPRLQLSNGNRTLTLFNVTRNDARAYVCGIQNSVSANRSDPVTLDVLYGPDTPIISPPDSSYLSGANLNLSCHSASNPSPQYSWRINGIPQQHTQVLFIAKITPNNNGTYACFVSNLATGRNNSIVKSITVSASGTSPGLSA

[2] = target: T1, carcinoembryonic antigen (CEA); assay: yeast surface display, off-rate analysis with biotinylated CEA and excess unlabelled CEA, flow cytometry

B1: sm3E (scFv)
scFv: PYDVPDYALQASGGGGSGGGGSGGGGSASQVKLEQSGAEVVKPGASVKLSCKASGFNIKDSYMHWLRQGPGQRLEWIGWIDPENGDTEYAPKFQGKATFTTDTSANTAYLGLSSLRPEDTAVYYCNEGTPTGPYYFDYWGQGTLVTVSSGGGGSGGGGSGGGGSENVLTQSPSSMSVSVGDRVTIACSASSSVPYMHWLQQKPGKSPKLLIYLTSNLASGVPSRFSGSGSGTDYSLTISSVQPEDAATYYCQQRSSYPLTFGGGTKLEIKAAAGSEQKLISEEDL
notes: also called stabilized m3E
[1]
  Kd: 0.03 nM
[2]
  koff: 1.2e-06 s⁻¹
